Target: T1, Xenopus Smurf1 (Xenopus, UniProt Q9PUN2 1-731)
T1 construct: Used as a yeast two-hybrid fusion and as in vitro translated 35S-Met-labelled protein; also called Xsmurf; 35S-labelled Smurf1
Experiment: in vitro co-immunoprecipitation: 35S-Smurf1 on FLAG-Smad bound to anti-FLAG beads
Experimental: (A) Smurf1 interacts with Smad1. Yeast two-hybrid assays were done on yeast co-transformed with combinations of Xenopus Smurf1 (Xsmurf) together with Smad1, Smad2, lamin or vector alone. […] Co-immunoprecipitation on in vitro translated proteins was done by incubating 35S-labelled Smurf1 together with in vitro translated, 35S-Met trace-labelled Flag-tagged Smad1 (35S-F/Smad1), Smad2 (35S-F/Smad2) or Smad4 (35S-F/Smad4) immobilized on anti-Flag affinity gel matrices. After washing, bound proteins were eluted and analyzed by SDS-PAGE (right panel).

T1 sequence (Q9PUN2 whole entry, the tested form may be a part): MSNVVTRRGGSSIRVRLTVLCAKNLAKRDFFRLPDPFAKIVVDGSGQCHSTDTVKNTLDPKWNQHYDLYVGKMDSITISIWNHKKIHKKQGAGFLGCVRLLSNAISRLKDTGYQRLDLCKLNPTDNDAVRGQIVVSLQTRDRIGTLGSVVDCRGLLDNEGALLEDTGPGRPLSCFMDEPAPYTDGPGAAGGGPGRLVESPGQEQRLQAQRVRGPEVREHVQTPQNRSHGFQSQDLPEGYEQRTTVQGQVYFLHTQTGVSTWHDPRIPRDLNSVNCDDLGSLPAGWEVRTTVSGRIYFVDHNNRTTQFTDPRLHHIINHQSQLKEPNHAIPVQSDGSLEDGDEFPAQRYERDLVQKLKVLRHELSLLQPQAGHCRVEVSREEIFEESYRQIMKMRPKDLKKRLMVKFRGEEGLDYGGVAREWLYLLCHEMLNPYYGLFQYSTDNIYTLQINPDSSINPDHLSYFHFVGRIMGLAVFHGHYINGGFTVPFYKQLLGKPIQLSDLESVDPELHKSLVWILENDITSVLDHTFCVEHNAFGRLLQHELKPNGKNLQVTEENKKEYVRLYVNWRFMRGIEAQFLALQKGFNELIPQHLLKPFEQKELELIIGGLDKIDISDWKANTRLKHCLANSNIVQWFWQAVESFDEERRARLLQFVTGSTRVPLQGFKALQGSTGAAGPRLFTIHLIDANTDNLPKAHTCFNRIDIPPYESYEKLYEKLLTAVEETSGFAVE

B1: human Smad2, FLAG-tagged at the C-terminus, in vitro translated (other, UniProt Q15796 1-467, looked up)
chain: MSSILPFTPPVVKRLLGWKKSAGGSGGAGGGEQNGQEEKWCEKAVKSLVKKLKKTGRLDELEKAITTQNCNTKCVTIPSTCSEIWGLSTPNTIDQWDTTGLYSFSEQTRSLDGRLQVSHRKGLPHVIYCRLWRWPDLHSHHELKAIENCEYAFNLKKDEVCVNPYHYQRVETPVLPPVLVPRHTEILTELPPLDDYTHSIPENTNFPAGIEPQSNYIPETPPPGYISEDGETSDQQLNQSMDTGSPAELSPTTLSPVNHSLDLQPVTYSEPAFWCSIAYYELNQRVGETFHASQPSLTVDGFTDPSNSERFCLGLLSNVNRNATVEMTRRHIGRGVRLYYIGGEVFAECLSDSAIFVQSPNCNQRYGWHPATVCKIPPGCNLKIFNNQEFAALLAQSVNQGFEAVYQLTRMCTIRMSFVKGWGAEYRRQTVTSTPCWIELHLNGPLQWLDKVLTQMGSPSVRCSSMS
notes: also called 35S-F/Smad2; not shown: C-terminal FLAG tag
- binding result: no binding

B2: mouse Smad4, FLAG-tagged at the C-terminus, in vitro translated (other, UniProt P97471 1-551, looked up)
chain: MDNMSITNTPTSNDACLSIVHSLMCHRQGGESETFAKRAIESLVKKLKEKKDELDSLITAITTNGAHPSKCVTIQRTLDGRLQVAGRKGFPHVIYARLWRWPDLHKNELKHVKYCQYAFDLKCDSVCVNPYHYERVVSPGIDLSGLTLQSNAPSMLVKDEYVHDFEGQPSLPTEGHSIQTIQHPPSNRASTETYSAPALLAPAESNATSTTNFPNIPVASTSQPASILAGSHSEGLLQIASGPQPGQQQNGFTAQPATYHHNSTTTWTGSRTAPYTPNLPHHQNGHLQHHPPMPPHPGHYWPVHNELAFQPPISNHPAPEYWCSIAYFEMDVQVGETFKVPSSCPVVTVDGYVDPSGGDRFCLGQLSNVHRTEAIERARLHIGKGVQLECKGEGDVWVRCLSDHAVFVQSYYLDREAGRAPGDAVHKIYPSAYIKVFDLRQCHRQMQQQAATAQAAAAAQAAAVAGNIPGPGSVGGIAPAISLSAAAGIGVDDLRRLCILRMSFVKGWGPDYPRQSIKETPCWIEIHLHRALQLLDEVLHTMPIADPQPLD
notes: also called 35S-F/Smad4; not shown: C-terminal FLAG tag
- binding result: no binding

From patent publication US7354722 (SIGNAL PHARMACEUTICALS, dated 2008)
